Like-named read-outs stand apart in the source and are kept apart here.
Key:
mice [1] = experiment: Example 39: Factor IX mmRNA IM in mice, serum Factor IX at 13 hours; assay type: in vivo; conditions: 2×100 ug/mouse IM
Protocol: Human Factor IX mmRNA (Gen1; fully modified 5-methycytosine and pseudouridine) formulated in formulation buffer was delivered to mice via intramuscular injection.
The mice were bled at 13 hours after the intramuscular injection to determine the concentration of human the polypeptide in serum in pg/mL.

HEK293A = experiment: Example 44: signal sequence exchange, secreted G-CSF ELISA (Table 70); assay type: cell-based; conditions: 293A, 250 ng mRNA, Lipofectamine 2000, supernatant 24 hrs
From the text: (§1) These variants included the G-CSF constructs encoding either the wild-type N terminal secretory signal peptide sequence ([…]; SEQ ID NO: 19), no secretory signal peptide sequence, or secretory signal peptide sequences taken from other mRNAs. These included sequences where the wild type GCSF signal peptide sequence was replaced with the signal peptide sequence of either: human α-1-anti trypsin (AAT) ([…]; SEQ ID NO: 20), human Factor IX (FIX) ([…]; SEQ ID NO: 21), human Prolactin (Prolac) ([…]; SEQ ID NO: 22), or human Albumin (Alb) ([…]; SEQ ID NO: 23).
(§2) 250 ng of modified mRNA encoding each G-CSF variant was transfected into HEK293A (293A in the table), mouse myoblast (MM in the table) (C2C12, CRL-1772, ATCC) and rat myoblast (RM in the table) (L6 line, CRL-1458, ATCC) cell lines in a 24 well plate using 1 ul of Lipofectamine 2000 (Life Technologies), each well containing 300,000 cells. […] The data shown in Table 70 reveal that cells transfected with G-CSF mmRNA encoding the Albumin signal peptide secrete at least 12 fold more G-CSF protein than its wild type counterpart.

mouse myoblast (C2C12) = experiment: as above; assay type: cell-based; conditions: MM (mouse myoblast C2C12), 250 ng mRNA, supernatant 24 hrs
From the text: as §1, §2

rat myoblast (L6 line) = experiment: as above; assay type: cell-based; conditions: RM (rat myoblast L6), 250 ng mRNA, supernatant 24 hrs
From the text: as §1, §2

[2] = Example 64A: Factor IX mRNA in serum-free media, peptides by MALDI; assay type: cell-based
From the text: The cell culture supernatant was collected and subjected to trypsin digestion before undergoing 2-dimensional HPLC separation of the peptides. Matrix-assisted laser desorption/ionization was used to detect the peptides. 8 peptides were detected and 7 of the detected peptides are unique to Factor IX.

HEK 293A cells = experiment: Example 64B: Factor IX mRNA half-life by quantitative Real-Time PCR; assay type: cell-based, Human; conditions: HEK293
Protocol: The transfection complexes were removed 3 hours after transfection. […] Total RNA was isolated and used for cDNA synthesis.

mice [3] = conditions: for Serum Concentration 8-12 hours after administration: Factor IX; for Factor IX Protein Expression, Conc: LNP IV, mice, 8 hrs
C57/BL6 mice = experiment: Example 32C: G-CSF lipoplex vs saline IM, SC in mice, serum G-CSF ELISA at 13 hours (Table 57); assay type: in vivo; conditions: IM or SC
Protocol: A formulation containing 100 μg of either modified human G-CSF mRNA lipoplexed with 30% by volume of RNAIMAX™ with a 5-methylcytosine (5mc) and a pseudouridine (ψ) modification (G-CSF-Gen1-Lipoplex), modified human G-CSF mRNA with a 5mc and ψ modification in saline (G-CSF-Gen1-Saline), modified human G-CSF mRNA with a N1-5-methylcytosine (N1-5mc) and a ψ modification lipoplexed with 30% by volume of RNAIMAX™ (G-CSF-Gen2-Lipoplex), modified human G-CSF mRNA with a N1-5mc and ψ modification in saline (G-CSF-Gen2-Saline), modified luciferase with a 5mc and ψ modification lipoplexed with 30% by volume of RNAIMAX™ (Luc-Lipoplex), or modified luciferase mRNA with a a 5mc and w modification in saline (Luc-Saline) was delivered intramuscularly (I.M.) or subcutaneously (S.C.) and a control group for each method of administration was giving a dose of 80 uL of the formulation buffer (F. Buffer) to C57/BL6 mice. 13 hours post injection serum and tissue from the site of injection were collected from each mouse and analyzed by G-CSF ELISA to compare human G-CSF protein levels. The results of the human G-CSF protein in mouse serum from the intramuscular administration and the subcutaneous administration results are shown in Table 57.

mice [4] = experiment: Example 40: multi-site IM/SC G-CSF mRNA in mice, neutrophil count (Table 65); assay type: in vivo; conditions: day 3
Protocol: Injection of four doses or 2×50 ug (two sites) daily for three days (24 hrs interval) was performed. The fourth dose was administered 6 hrs before blood collection and CBC analysis. […] The mice were bled at 72 hours after the first mRNA injection (6 hours after the last mRNA dose) to determine the effect of mRNA-encoded human G-CSF on the neutrophil count. The dosing regimen is shown in Table 65 as are the resulting neutrophil counts (thousands/uL). In Table 65, an asterisks (*) indicate statistical significance at p<0.05.

human PBMC [5] = experiment: Example 45: PBMC transfection, G-CSF ELISA (Table 71); assay type: cell-based
Protocol: (§3) The plates were then incubated at 37 C.
(§4) Each condition was done in duplicate.
(§5) Shown in Tables 71 and 72 are the average from 2 separate PBMC donors of the G-CSF and IFN-alpha production over time as measured by specific ELISA.

human PBMC [6] = experiment: Example 45: PBMC transfection, IFN-alpha ELISA (Table 72); assay type: cell-based
Protocol: as §3, §4, §5

BALB/C mice = experiment: Example 59: G-CSF mRNA IM in mice, serum human G-CSF and mouse IFN-alpha ELISA (Table 93); assay type: in vivo
Sprague Dawley rats = experiment: Example 60: G-CSF/Factor IX mRNA IM in rats, serum G-CSF ELISA (Table 94); assay type: in vivo
Protocol: Protein production of modified mRNA was evaluated by delivering modified G-CSF mRNA or modified Factor IX mRNA to female Sprague Dawley rats (n=6). […] Blood was collected 8 hours after injection and the G-CSF protein level in serum was measured by ELISA.

BJ fibroblasts = conditions: for IFN-beta / IL-6: 250 ng transfected daily for 5 days

For “Factor IX: modified mRNA encoding human Factor IX, SEQ ID NO: 8, Cap1, fully modified with 5-methylcytosine and pseudouridine”, the “Factor IX in serum” value (mice [1]) was 1600 pg/mL, the “secreted G-CSF protein” value (HEK293A) was 11675 pg/mL and the “secreted G-CSF protein” value (mouse myoblast (C2C12)) was 6175 pg/mL. For the same molecule, the “secreted G-CSF protein” value (rat myoblast (L6 line)) was 11675 pg/mL, the “Factor IX protein expression (peptides by MALDI)” value [2] was “able to express full-length Factor IX protein” and the “half-life of mRNA” value (HEK 293A cells) was 8 to 10 h. For the same molecule, the “Factor IX protein expression determined by ELISA” value (mice [3]; 100 ug dose group) was 3000 to 11000 ng/mL, the “Serum Concentration 8-12 hours after administration” value (from here on “Serum Concentration 8-12 hours”) (mice [3]; IM, 2 × 100 ug) was about 1.6 ng/mL and the “Serum Concentration 8-12 hours” value (mice [3]; IV (LNP), 1 ug) was about 40 ng/mL. For the same molecule, the “Serum Concentration 8-12 hours” value (mice [3]; IV (LNP), 10 ug) was about 400 ng/mL, the “Serum Concentration 8-12 hours” value (mice [3]; IV (LNP), 100 ug) was ~3,000-10,000 ng/ml and the “Factor IX Protein Expression, Conc” value (mice [3]; dose 10 ug) was 383.04 ng/mL. For the same molecule, the “Factor IX Protein Expression, Conc” value (mice [3]; dose 100 ug, dilution factor 50x) was 3247.75 ng/mL and the “Factor IX Protein Expression, Conc” value (mice [3]; dose 100 ug, dilution factor 250x) was 11177.20 ng/mL.

B1: G-CSF Gen 2: G-CSF mRNA (SEQ ID NO: 4) fully modified with 5-methylcytosine and N1-methylpseudouridine (nucleic acid)
chain: GGGAAAUAAGAGAGAAAAGAAGAGUAAGAAGAAAUAUAAGAGCCACCAUGGCCGGUCCCGCGACCCAAAGCCCCAUGAAACUUAUGGCCCUGCAGUUGCUGCUUUGGCACUCGGCCCUCUGGACAGUCCAAGAAGCGACUCCUCUCGGACCUGCCUCAUCGUUGCCGCAGUCAUUCCUUUUGAAGUGUCUGGAGCAGGUGCGAAAGAUUCAGGGCGAUGGAGCCGCACUCCAAGAGAAGCUCUGCGCGACAUACAAACUUUGCCAUCCCGAGGAGCUCGUACUGCUCGGGCACAGCUUGGGGAUUCCCUGGGCUCCUCUCUCGUCCUGUCCGUCGCAGGCUUUGCAGUUGGCAGGGUGCCUUUCCCAGCUCCACUCCGGUUUGUUCUUGUAUCAGGGACUGCUGCAAGCCCUUGAGGGAAUCUCGCCAGAAUUGGGCCCGACGCUGGACACGUUGCAGCUCGACGUGGCGGAUUUCGCAACAACCAUCUGGCAGCAGAUGGAGGAACUGGGGAUGGCACCCGCGCUGCAGCCCACGCAGGGGGCAAUGCCGGCCUUUGCGUCCGCGUUUCAGCGCAGGGCGGGUGGAGUCCUCGUAGCGAGCCACCUUCAAUCAUUUUUGGAAGUCUCGUACCGGGUGCUGAGACAUCUUGCGCAGCCGUGAAGCGCUGCCUUCUGCGGGGCUUGCCUUCUGGCCAUGCCCUUCUUCUCUCCCUUGCACCUGUACCUCUUGGUCUUUGAAUAAAGCCUGAGUAGGAAG
modifications: 5-methylcytosine, N1-methylpseudouridine
In the case of B1, the “human G-CSF protein production relative to 5-methylcytosine/pseudouridine mRNA” value (C57/BL6 mice) is reported as “increased human G-CSF protein production”, the “increase in neutrophil count above control” value (mice [4]; intramuscular) is reported as “two fold increase” and the “increase in neutrophil count above control” value (mice [4]; subcutaneous) is reported as “two fold increase”. For the same molecule, the G-CSF production (human PBMC [5]) was “highest level of G-CSF production”, the “IFN-alpha / cytokine production” value (human PBMC [6]) was “did not significantly increase cytokines” and the “Protein: Cytokine Ratio (PC Ratio)” value (BALB/C mice; G-CSF / IFN-alpha) was 748. For the same molecule, the “human G-CSF expression in mouse serum” value (BALB/C mice; IM, 8 hours) was “resulted in human G-CSF expression in mouse serum”, the “mouse IFN-alpha in the serum (cytokine response)” value (BALB/C mice; IM, 8 hours) was “no detectable IFN-alpha” and the “human G-CSF protein production, Gen 2 vs Gen 1 chemistry” value (Sprague Dawley rats; 400 ug IM, rats, 8 hours) was “human G-CSF protein production is improved”. The “G-CSF protein in rat serum” value (Sprague Dawley rats; I.M., 400 ug in 100 ul, 5% sucrose, 8 hours after injection) was 64.72 pg/mL, the “time to cytokine response (IFN-beta, IL-6)” value (BJ fibroblasts) was 3 to 5 days and the IFN-beta (BJ fibroblasts; 6 hours) was 0 pg/mL. It also gave an IL-6 (BJ fibroblasts; 6 hours) of 3337 pg/mL, an IFN-beta (BJ fibroblasts; Day 1) of 0 pg/mL and an IL-6 (BJ fibroblasts; Day 1) of 3733 pg/mL. The IFN-beta (BJ fibroblasts; Day 2) was 150 pg/mL, the IL-6 (BJ fibroblasts; Day 2) was 974 pg/mL and the IFN-beta (BJ fibroblasts; Day 3) was 213 pg/mL. For the same molecule, the IL-6 (BJ fibroblasts; Day 3) was 4972 pg/mL, the IFN-beta (BJ fibroblasts; Day 4) was 1400 pg/mL and the IL-6 (BJ fibroblasts; Day 4) was 4122 pg/mL. It also gave an IFN-beta (BJ fibroblasts; Day 5) of 350 pg/mL and an IL-6 (BJ fibroblasts; Day 5) of 2906 pg/mL.

Reference: patent US20190142971A1, “FORMULATION AND DELIVERY OF MODIFIED NUCLEOSIDE, NUCLEOTIDE, AND NUCLEIC ACID COMPOSITIONS” (ModernaTX, Inc., priority 2013, published 2019)
